Experiment: Pharmacokinetic assay, single intravenous administration
Assay type: in vivo
Details: for Plasma drug concentration: IV 2 mg/kg
Protocol: Lines and sources: cynomolgus monkeys, Guangxi Xiongsen Primate Laboratory Animal Breeding Development Co., Ltd.
The test substance was administered in a single dose by intravenous injection.
The blood samples were collected and centrifuged to separate plasma (centrifugation conditions: 8000 rpm, 6 minutes, 2-8° C.). The contents of the label included: the subject number of Medicilon Pharmaceutical Technology (Shanghai) Co., Ltd., relevant test days, serial number of animals, date, and sampling time point. The collected plasma samples were stored in a refrigerator at ≤−65° C. before analysis. After analysis, the remaining plasma samples were stored in the refrigerator at ≤−65° C. for subsequent processing.
The biological sample analysis method and analysis of all samples were performed by the analytical laboratory of Medicilon Pharmaceutical Technology (Shanghai) Co., Ltd. Each plate in the sample analysis must contain a standard curve. At least ¾ of the points and not less than 6 non-zero concentration points (without anchor points) constituting the standard curve should meet the acceptance criteria for method validation. Each plate should also contain at least 2 sets and each set comprised at least 3 quality control samples of different concentration levels (high-concentration quality control, intermediate-concentration quality control, and low-concentration quality control).
The pharmacokinetic parameters were calculated with non-compartmental model using Phoenix pharmacokinetic software: AUC0-t, AUC0-∞, Cmax, t1/2, Tmax, C0, Cl, MRT0-∞ and Vss.

[1] = Mean of 4 animals, single IV 2 mg/kg

“Slit2D2(C386S)-HSA: Fusion protein of the Slit2 D2 domain with C386S mutation linked to human serum albumin; amino acid sequence SEQ ID NO: 3” showed a Plasma drug concentration (101-Male, day 0.125) of 16151.832 ng/mL, a Plasma drug concentration (101-Male, day 0.25) of 15501.583 ng/mL and a Plasma drug concentration (101-Male, day 0.5) of 13047.082 ng/mL. The Plasma drug concentration (101-Male, day 2) was 11326.279 ng/mL, the Plasma drug concentration (101-Male, day 5) was 6773.314 ng/mL and the Plasma drug concentration (101-Male, day 6) was 2717.981 ng/mL. For the same substance, the Plasma drug concentration (101-Male, day 8) was 1577.577 ng/mL, the Plasma drug concentration (101-Male, day 11) was “BLQ (Below the minimum limit of quantitation)” and the Plasma drug concentration (101-Male, day 14) was “BLQ (Below the minimum limit of quantitation)”. The Plasma drug concentration (101-Male, day 17) was “BLQ (Below the minimum limit of quantitation)”, the Plasma drug concentration (101-Male, day 19) was “BLQ (Below the minimum limit of quantitation)” and the Plasma drug concentration (101-Male, day 22) was “BLQ (Below the minimum limit of quantitation)”. For the same substance, the Plasma drug concentration (101-Male, day 26) was “BLQ (Below the minimum limit of quantitation)”, the Plasma drug concentration (101-Male, day 29) was “BLQ (Below the minimum limit of quantitation)” and the Plasma drug concentration (101-Male, day 36) was “BLQ (Below the minimum limit of quantitation)”. For the same substance, the Plasma drug concentration (101-Male, day 43) was “BLQ (Below the minimum limit of quantitation)”, the “AUC(0-t)” value (101-Male, single IV 2 mg/kg) was 45588.03 ng·days/mL and the “AUC(0-∞)” value (101-Male, single IV 2 mg/kg) was 50239.09 ng·days/mL. The C0 (101-Male, single IV 2 mg/kg) was 16829.36 ng/mL, the CL (101-Male, single IV 2 mg/kg) was 1.659 mL/h/kg and the Cmax (101-Male, single IV 2 mg/kg) was 16151.83 ng/mL. For the same substance, the “MRT(0-∞)” value (101-Male, single IV 2 mg/kg) was 68.2 h, the Tmax (101-Male, single IV 2 mg/kg) was 3.12 h and the Vss (101-Male, single IV 2 mg/kg) was 0.11309 L/kg. The t1/2 (101-Male, single IV 2 mg/kg) was 49 h, the Plasma drug concentration (102-Male, day 0.125) was 12629.116 ng/mL and the Plasma drug concentration (102-Male, day 0.25) was 13612.467 ng/mL. The Plasma drug concentration (102-Male, day 0.5) was 13169.983 ng/mL, the Plasma drug concentration (102-Male, day 2) was 8055.924 ng/mL and the Plasma drug concentration (102-Male, day 5) was 4063.179 ng/mL. The Plasma drug concentration (102-Male, day 6) was 2215.633 ng/mL, the Plasma drug concentration (102-Male, day 8) was “BLQ (Below the minimum limit of quantitation)” and the Plasma drug concentration (102-Male, day 11) was “BLQ (Below the minimum limit of quantitation)”. The Plasma drug concentration (102-Male, day 14) was “BLQ (Below the minimum limit of quantitation)”, the Plasma drug concentration (102-Male, day 17) was “BLQ (Below the minimum limit of quantitation)” and the Plasma drug concentration (102-Male, day 19) was “BLQ (Below the minimum limit of quantitation)”. For the same substance, the Plasma drug concentration (102-Male, day 22) was “BLQ (Below the minimum limit of quantitation)”, the Plasma drug concentration (102-Male, day 26) was “BLQ (Below the minimum limit of quantitation)” and the Plasma drug concentration (102-Male, day 29) was “BLQ (Below the minimum limit of quantitation)”. For the same substance, the Plasma drug concentration (102-Male, day 36) was “BLQ (Below the minimum limit of quantitation)”, the Plasma drug concentration (102-Male, day 43) was “BLQ (Below the minimum limit of quantitation)” and the “AUC(0-t)” value (102-Male, single IV 2 mg/kg) was 30270.94 ng·days/mL. For the same substance, the “AUC(0-∞)” value (102-Male, single IV 2 mg/kg) was 37136.49 ng·days/mL, the C0 (102-Male, single IV 2 mg/kg) was 12629.12 ng/mL and the CL (102-Male, single IV 2 mg/kg) was 2.244 mL/h/kg. For the same substance, the Cmax (102-Male, single IV 2 mg/kg) was 13612.47 ng/mL, the “MRT(0-∞)” value (102-Male, single IV 2 mg/kg) was 67.4 h and the Tmax (102-Male, single IV 2 mg/kg) was 6 h. The Vss (102-Male, single IV 2 mg/kg) was 0.15145 L/kg, the t1/2 (102-Male, single IV 2 mg/kg) was 51.6 h and the Plasma drug concentration (103-Female, day 0.125) was 13162.76 ng/mL. The Plasma drug concentration (103-Female, day 0.25) was 11266.684 ng/mL, the Plasma drug concentration (103-Female, day 0.5) was 9508.594 ng/mL and the Plasma drug concentration (103-Female, day 2) was 5952.269 ng/mL. It also gave a Plasma drug concentration (103-Female, day 5) of 3914.939 ng/mL, a Plasma drug concentration (103-Female, day 6) of 2155.966 ng/mL and a Plasma drug concentration (103-Female, day 8) of 731.688 ng/mL. For the same substance, the Plasma drug concentration (103-Female, day 11) was “BLQ (Below the minimum limit of quantitation)”, the Plasma drug concentration (103-Female, day 14) was “BLQ (Below the minimum limit of quantitation)” and the Plasma drug concentration (103-Female, day 17) was “BLQ (Below the minimum limit of quantitation)”. The Plasma drug concentration (103-Female, day 19) was “BLQ (Below the minimum limit of quantitation)”, the Plasma drug concentration (103-Female, day 22) was “BLQ (Below the minimum limit of quantitation)” and the Plasma drug concentration (103-Female, day 26) was “BLQ (Below the minimum limit of quantitation)”. For the same substance, the Plasma drug concentration (103-Female, day 29) was “BLQ (Below the minimum limit of quantitation)”, the Plasma drug concentration (103-Female, day 36) was “BLQ (Below the minimum limit of quantitation)” and the Plasma drug concentration (103-Female, day 43) was “BLQ (Below the minimum limit of quantitation)”. The “AUC(0-t)” value (103-Female, single IV 2 mg/kg) was 28598.53 ng·days/mL, the “AUC(0-∞)” value (103-Female, single IV 2 mg/kg) was 30524.24 ng·days/mL and the C0 (103-Female, single IV 2 mg/kg) was 15377.93 ng/mL. The CL (103-Female, single IV 2 mg/kg) was 2.73 mL/h/kg, the Cmax (103-Female, single IV 2 mg/kg) was 13162.76 ng/mL and the “MRT(0-∞)” value (103-Female, single IV 2 mg/kg) was 61.9 h. The Tmax (103-Female, single IV 2 mg/kg) was 3.12 h, the Vss (103-Female, single IV 2 mg/kg) was 0.16888 L/kg and the t1/2 (103-Female, single IV 2 mg/kg) was 43.7 h. The Plasma drug concentration (104-Female, day 0.125) was 13541.873 ng/mL, the Plasma drug concentration (104-Female, day 0.25) was 12289.107 ng/mL and the Plasma drug concentration (104-Female, day 0.5) was 10597.55 ng/mL. It also gave a Plasma drug concentration (104-Female, day 2) of 8296.324 ng/mL, a Plasma drug concentration (104-Female, day 5) of 3663.777 ng/mL and a Plasma drug concentration (104-Female, day 6) of 1433.272 ng/mL. The Plasma drug concentration (104-Female, day 8) was “BLQ (Below the minimum limit of quantitation)”, the Plasma drug concentration (104-Female, day 11) was “BLQ (Below the minimum limit of quantitation)” and the Plasma drug concentration (104-Female, day 14) was “BLQ (Below the minimum limit of quantitation)”. The Plasma drug concentration (104-Female, day 17) was “BLQ (Below the minimum limit of quantitation)”, the Plasma drug concentration (104-Female, day 19) was “BLQ (Below the minimum limit of quantitation)” and the Plasma drug concentration (104-Female, day 22) was “BLQ (Below the minimum limit of quantitation)”. For the same substance, the Plasma drug concentration (104-Female, day 26) was “BLQ (Below the minimum limit of quantitation)”, the Plasma drug concentration (104-Female, day 29) was “BLQ (Below the minimum limit of quantitation)” and the Plasma drug concentration (104-Female, day 36) was “BLQ (Below the minimum limit of quantitation)”. For the same substance, the Plasma drug concentration (104-Female, day 43) was “BLQ (Below the minimum limit of quantitation)”, the “AUC(0-t)” value (104-Female, single IV 2 mg/kg) was 28034.90 ng·days/mL and the “AUC(0-∞)” value (104-Female, single IV 2 mg/kg) was 31263.33 ng·days/mL. For the same substance, the C0 (104-Female, single IV 2 mg/kg) was 14922.35 ng/mL, the CL (104-Female, single IV 2 mg/kg) was 2.665 mL/h/kg and the Cmax (104-Female, single IV 2 mg/kg) was 13541.87 ng/mL. For the same substance, the “MRT(0-∞)” value (104-Female, single IV 2 mg/kg) was 50.4 h, the Tmax (104-Female, single IV 2 mg/kg) was 3.12 h and the Vss (104-Female, single IV 2 mg/kg) was 0.13446 L/kg. The t1/2 (104-Female, single IV 2 mg/kg) was 37.4 h, the “AUC(0-t)” value [1] was 33123.10 ng·days/mL and the “AUC(0-∞)” value [1] was 37290.79 ng·days/mL. For the same substance, the C0 [1] was 14939.69 ng/mL, the CL [1] was 2.325 mL/h/kg and the Cmax [1] was 14117.23 ng/mL. The “MRT(0-∞)” value [1] was 61.9 h, the Tmax [1] was 3.84 h and the Vss [1] was 0.14197 L/kg. The t1/2 [1] was 45.4 h, the Plasma drug concentration (Mean, day 0.125) was 13871.40 ng/mL and the Plasma drug concentration (Mean, day 0.25) was 13167.46 ng/mL. The Plasma drug concentration (Mean, day 0.5) was 11580.80 ng/mL, the Plasma drug concentration (Mean, day 2) was 8407.70 ng/mL and the Plasma drug concentration (Mean, day 5) was 4603.80 ng/mL. For the same substance, the Plasma drug concentration (Mean, day 6) was 2130.71 ng/mL, the Plasma drug concentration (Mean, day 8) was 1154.63 ng/mL and the “Observation during the test (morbidity, damage, death rate, food and water supply)” value (single IV 2 mg/kg) was “No abnormal findings”. For the same substance, the “ratio of AUC(0-∞) between male and female” value (single IV 2 mg/kg) was 1.41, the “ratio of Cmax between male and female” value (single IV 2 mg/kg) was 1.11 and the “ratio of t1/2 between male and female” value (single IV 2 mg/kg) was 1.24.

Source: US10947296B2, “Fusion protein Slit2D2(C386S)-HSA and use thereof in treatment of fibrotic diseases” (SUZHOU THINKING POWER BIOTECHNOLOGY CO., LTD., priority 2016, dated 2021)
